Results from patent publication EP1192182B1, “PITUITARY ADENYLATE CYCLASE ACTIVATING PEPTIDE (PACAP) RECEPTOR 3 (R3) AGONISTS AND THEIR PHARMACOLOGICAL METHODS OF USE” (priority 1999, dated 2001).
No end group written: not given here.

T1: PACAP-R3 (human, UniProt P41587 24-438)
T1 sequence (looked up): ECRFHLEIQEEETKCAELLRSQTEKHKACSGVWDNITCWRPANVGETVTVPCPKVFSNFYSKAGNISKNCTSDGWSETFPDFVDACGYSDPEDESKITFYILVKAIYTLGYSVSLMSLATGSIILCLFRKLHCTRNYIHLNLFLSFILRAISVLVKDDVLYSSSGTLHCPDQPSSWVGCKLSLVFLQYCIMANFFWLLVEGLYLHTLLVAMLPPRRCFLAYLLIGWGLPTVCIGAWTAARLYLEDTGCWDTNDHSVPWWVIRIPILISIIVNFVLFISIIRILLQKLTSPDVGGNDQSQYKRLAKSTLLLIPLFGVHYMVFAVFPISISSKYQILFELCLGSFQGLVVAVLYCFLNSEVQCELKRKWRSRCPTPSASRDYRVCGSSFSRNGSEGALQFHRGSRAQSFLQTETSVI


Each binder was assayed against T1, PACAP-R3 (assay: cell-based or functional assay).

| Binder | R3 EC50 [pM] | R3 Selectivity [ratio] |
| --- | --- | --- |
| HSDAVFTDNYTRLRKQMASKKYLNSIKNKR [R3P110] | 500 | 200 |
| HSDAVFTDNYTRLRKQMAYKKYLNSIKNKR [R3P114] | 2000 | 10 |
| HSDAVFTDNYTRLRKQMAAKKYLNSIKNHR [R3P139] | 400 | 50 |
| HSDAVFTDNYTRLRKQMAAKKYLNSIKNER [R3P136] |  | 70 |
| HSDAVFTDNYTRLRKQMAAKKYLNSIKNMR [R3P142] |  | 30 |
| HSDAVFTDNYTRLRKQMAAKKYLNSIKNNR [R3P143] | 200 | 30 |
| HSDAVFTDNYTRLRKQMAWKKYLNSIKNKR [R3P113] | 300 | 10 |
| HSDAVFTDNYTRLRKQMAAKKYLNSITNKR [R3P129] |  | 50 |
| HSDAVFTDNYTRLRKQMAIKKYLNSIKNKR [R3P102] | 60000 | 5 |
| HSDAVFTDNYTRLRKQMAQKKYLNSIKNKR [R3P108] | 300000 | 3 |
| HSDAVFTDNYTRLRKQMAAKKYLNSIKNPR [R3P144] | 3000 | 100 |
| HSDAVFTDNYTRLRKQMAGKKYLNSIKNKR [R3P100] | 300 | 30 |
| HSDAVFTDNYTRLRKQMAAKKYLNSIGNKR [R3P120] | 200 | 50 |
| HSDAVFTDNYTRLRKQMAVKKYLNDLKKGGT [R3P14] |  | 3 |
| HSDAVFTDNYTRLRKQMAAKKYLNSIENKR [R3P118] |  | 30 |
| HSDAVFTDNYTRLRKQMAAKKYLNSIKNSR [R3P147] | 200 | 500 |
| HSDAVFTDNYTRLRKQMAAKKYLNSIKNRR [R3P146] | 300 | 100 |
| HSDAVFTDNYTRLRKQMAAKKYLNSIKNWR [R3P150] | 800 | 50 |
| HSDAVFTDNYTRLRKQMAAKKYLNSIYNKR [R3P132] | 200 |  |
| HSDAVFTDNYTRLRKQMAAKKYLNSIKNKE [R3P155] | 400 | 100 |
| HSDAVFTDNYTRLRKQMARKKYLNSIKNKR [R3P109] | 10000 | 100 |
| HSDAVFTDNYTRLRKQMAAKKYLNSIHNKR [R3P121] | 1000 | 50 |
| HSDAVFTDNYTRLRKQMAKKKYLNSIKNKR [R3P103] | 50 | 8 |
| HSDAVFTDNYTRLRKQMAMKKYLNSIKNKR [R3P105] | 300 |  |
| HSDAVFTDNYTRLRKQMAAKKYLNSIVNKR [R3P130] | 1000 | 40 |
| HSDAVFTDNYTRLRKQMAAKKYLNSIKNIR [R3P140] | 300 | 50 |

| Binder | R3 EC50 [pM] | R3 Selectivity [ratio] |
| --- | --- | --- |
| HSDAVFTDNYTRLRKQMAAKKYLNSIKNVR [R3P149] | 500 | 80 |
| HSDAVFTDNYTRLRKQMAAKKYLNSIINKR [R3P122] | 200 |  |
| HSDAVFTDNYTRLRKQMAAKKYLNSISNKR [R3P128] | 300 | 200 |
| HSDAVFTDNYTRLRKQMAHKKYLNSIKNKR [R3P101] | 1000 | 400 |
| HSDAVFTDNYTRLRKQLAAKKYLNDIKK-NH2 [R3P13] |  | 33 |
| HSDAVFTDNYTRLRKQMAAKKYLNSIKNTR [R3P148] | 300 | 100 |
| HSDAVFTDNYTRLRKQMAAKKYLNSIKNKD [R3P153] | 200 | 200 |
| HSDAVFTDNYTRLRKQMAAKKYLNSIRNKR [R3P127] | 500 | 600 |
| HSDAVFTDNYTRLRKQMALKKYLNSIKNKR [R3P104] | 200 | 500 |
| HSDAVFTDNYTRLRKQMAAKKYLNSIKNFR [R3P137] | 300 | 100 |
| HSDAVFTDNYTRLRKQMAAKKYLNSIKNLR [R3P141] |  | 100 |
| HSDAVFTDNYTRLRKQMAAKKYLNSIFNKR [R3P119] | 500 | 30 |
| HSDAVFTENYTKLRKQLAAKKYLNDLKKGGTSWCEPGWCR [R3P19] |  | 30 |
| HSDAVFTDNYTKLRKQLAAKKYLNDILNGGT [R3P11] |  | 3 |
| HSDAVFTDNYTRLRKQLAAKKYLNDIKKGGT [R3P12] |  | > 200 |
| HSDAVFTDNYTRLRKQMAPKKYLNSIKNKR [R3P107] | 200000 | 5 |
| HSDAVFTDNYTRLRKQMAAKKYLNSIPNKR [R3P125] | 2000 | 30 |
| HSDAVFTDNYTRLRKQMATKKYLNSIKNKR [R3P111] | 3000 |  |
| HSDAVFTDNYTRLRKQMAAKKYLNSICNKR [R3P116] | 1000 | 20 |
| HSDAVFTDNYTRLRKQMAAKKYLNSINNKR [R3P124] | 200 | 15 |
| HSDAVFTDNYTRLRKQMAFKKYLNSIKNKR [R3P99] | 1000 | 40 |
| HSDAVFTDNYTRLRKQMAAKKYLNSIKNQR [R3P145] | 500 | 100 |
| HSDAVFTDNYTRLRKQMAAKKYLNSIANKR [R3P115] | 6000 | 50 |
| HSDAVFTDNYTRLRKQMAAKKYLNSIWNKR [R3P131] | 300 | 70 |
| HSDAVFTDNYTRLRKQMAAKKYLNSIKNCR [R3P134] | 400 | 100 |
| HSDAVFTDNYTRLRKQMAAKKYLNSIQNKR [R3P126] | 1000 | 200 |
